First the molecules themselves.
B1: glmS ribozyme (parent)
chain: AUAAAAGCGCCAGAACUACAGAAAUGUAGUUGACGAGGAGGAGGUUUAUCGAAUUUUCGGCGGAUGCCUCCAAA

± gives the standard error. For part of these data: Variants at the floor of the assay were thinned out. Where only a bound is given, the exact number is not on record here.

Common to all, as to details: with glucosamine-6-phosphate
Data set [1] covers variants of B1. Description: kcat; higher = faster cleavage; RNA array. The procedure, abridged: (§1)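 Glucosamine-6-phosphate, from 40 μM to 10 mM in HEPES/KCl/Mg(OAc)2 buffer, was flowed over sequenced MiSeq chips carrying barcoded ribozyme variants transcribed in situ by E. coli RNA polymerase. A hybridised Cy3 probe tracked the variants at 37 °C as tiles were imaged over ~14 h. kobs, kcat and KM were obtained by fitting normalised per-tile medians to exponential decays and then applying weighted Michaelis–Menten fits across concentrations.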

In data set [2] the parent is B1. The experiment in a line: self-cleavage kobs at 40 uM GlcN6P; higher = faster cleavage; RNA array. The procedure, abridged:
as §1

The variants in data set [3] derive from B1. The experiment in a line: self-cleavage kobs at 2500 uM GlcN6P; higher = faster cleavage; RNA array. The procedure, abridged: as §1
Data set [4] covers variants of B1. The experiment in a line: self-cleavage kobs at 10000 uM GlcN6P; higher = faster cleavage; RNA array. The procedure, abridged: as §1
Variants of B1 are the subject of data set [5]. The experiment in a line: self-cleavage kobs at 640 uM GlcN6P; higher = faster cleavage; RNA array. The procedure, abridged:
as §1

Variants of B1 are the subject of data set [6]. The experiment in a line: KM; higher = weaker cofactor use; RNA array. In outline:
as §1

The variants in data set [7] derive from B1. The experiment in a line: self-cleavage kobs at 160 uM GlcN6P; higher = faster cleavage; RNA array. The procedure, abridged:
as §1

Data on 21 variants can be found in the supplement of paper PMC7125110.

As for C16G A33C, the kcat (as a rule, the maximal rate divided by the concentration of active sites) in the data set with glucosamine-6-phosphate [1] was found to be 4.59e-05 ± 3.9e-06 s⁻¹. In addition, the “self-cleavage kobs at 40 uM GlcN6P” value with glucosamine-6-phosphate [2] was less than 1e-05 s⁻¹. Also, the “self-cleavage kobs at 2500 uM GlcN6P” value in the data set with glucosamine-6-phosphate [3] was found to be 3.96e-05 ± 1.6e-05 s⁻¹. Besides, the “self-cleavage kobs at 10000 uM GlcN6P” value in the data set with glucosamine-6-phosphate [4] was 4.28e-05 ± 1.3e-05 s⁻¹.
With G60C C71A, in the data set with glucosamine-6-phosphate [1], the kcat is less than 1e-05 s⁻¹. For the same variant, the “self-cleavage kobs at 40 uM GlcN6P” value with glucosamine-6-phosphate [2] is less than 1e-05 s⁻¹.
Turning to C61U G66A, the kcat with glucosamine-6-phosphate [1] was less than 1e-05 s⁻¹. In addition, the “self-cleavage kobs at 640 uM GlcN6P” value in the data set with glucosamine-6-phosphate [5] was less than 1e-05 s⁻¹.
As to U47C C68A, in the data set with glucosamine-6-phosphate [1], the kcat stood at 3.98e-05 ± 6.2e-06 s⁻¹. Further, the “self-cleavage kobs at 2500 uM GlcN6P” value with glucosamine-6-phosphate [3] turned out to be 4.92e-05 ± 1.8e-05 s⁻¹. For the same variant, the “self-cleavage kobs at 10000 uM GlcN6P” value in the data set with glucosamine-6-phosphate [4] was 3.44e-05 ± 1.2e-05 s⁻¹.
As to A14C G29A, in the data set with glucosamine-6-phosphate [1], the kcat stood at 0.000725 ± 5.3e-05 s⁻¹. For the same variant, the KM (in general, the substrate concentration at which the rate is half of its maximum) with glucosamine-6-phosphate [6] is 2290 ± 270 µM. Also, the “self-cleavage kobs at 160 uM GlcN6P” value with glucosamine-6-phosphate [7] came out at 4.05e-05 ± 1.5e-05 s⁻¹. Also, the “self-cleavage kobs at 640 uM GlcN6P” value with glucosamine-6-phosphate [5] turned out to be 0.000166 ± 2.4e-05 s⁻¹. For the same variant, the “self-cleavage kobs at 2500 uM GlcN6P” value with glucosamine-6-phosphate [3] amounted to 0.000389 ± 9.3e-05 s⁻¹. Also, the “self-cleavage kobs at 10000 uM GlcN6P” value in the data set with glucosamine-6-phosphate [4] was 0.00058 ± 9.2e-05 s⁻¹.
Take G32C U46G: in the data set with glucosamine-6-phosphate [1], the catalytic constant (kcat) stood at 1.21e-05 ± 4.8e-07 s⁻¹. In the data set with glucosamine-6-phosphate [6], the KM was found to be 349 ± 150 µM.
As to U49A U69G, the kcat in the data set with glucosamine-6-phosphate [1] amounted to 5.15e-05 ± 2.2e-05 s⁻¹. Besides, the “self-cleavage kobs at 640 uM GlcN6P” value with glucosamine-6-phosphate [5] was determined as 4.76e-05 ± 1.8e-05 s⁻¹. The “self-cleavage kobs at 2500 uM GlcN6P” value with glucosamine-6-phosphate [3] is 8.54e-05 ± 1.8e-05 s⁻¹.
With U54A U65G C67U, in the data set with glucosamine-6-phosphate [1], the kcat was 0.00302 ± 0.00027 s⁻¹. The KM in the data set with glucosamine-6-phosphate [6] came out at 3900 ± 500 µM. Moreover, in the data set with glucosamine-6-phosphate [7], the “self-cleavage kobs at 160 uM GlcN6P” value stood at 0.000109 ± 3.7e-05 s⁻¹. Besides, in the data set with glucosamine-6-phosphate [5], the “self-cleavage kobs at 640 uM GlcN6P” value stood at 0.000434 ± 9.2e-05 s⁻¹. Also, the “self-cleavage kobs at 10000 uM GlcN6P” value with glucosamine-6-phosphate [4] is 0.00217 ± 0.00041 s⁻¹.
With A36C, the kcat in the data set with glucosamine-6-phosphate [1] is less than 1e-05 s⁻¹. Also, in the data set with glucosamine-6-phosphate [7], the “self-cleavage kobs at 160 uM GlcN6P” value was less than 1e-05 s⁻¹.
U31G G37U C68A: in the data set with glucosamine-6-phosphate [1], the kcat came out at 2.76e-05 ± 6.9e-06 s⁻¹.
Take A14C A48G: in the data set with glucosamine-6-phosphate [1], the catalytic constant (kcat) is less than 1e-05 s⁻¹. In addition, the KM with glucosamine-6-phosphate [6] was 1040 ± 200 µM. The “self-cleavage kobs at 640 uM GlcN6P” value in the data set with glucosamine-6-phosphate [5] is less than 1e-05 s⁻¹.
In the case of G40U U65C, the kcat with glucosamine-6-phosphate [1] worked out at 6.53e-05 ± 8.5e-06 s⁻¹. In addition, in the data set with glucosamine-6-phosphate [3], the “self-cleavage kobs at 2500 uM GlcN6P” value is 6.94e-05 ± 1.5e-05 s⁻¹. Moreover, the “self-cleavage kobs at 10000 uM GlcN6P” value with glucosamine-6-phosphate [4] was 5.76e-05 ± 1.1e-05 s⁻¹.
In the case of A14U U45C, the kcat in the data set with glucosamine-6-phosphate [1] amounted to 0.000739 ± 0.00014 s⁻¹. The KM in the data set with glucosamine-6-phosphate [6] came out at 3320 ± 1200 µM. Further, the “self-cleavage kobs at 640 uM GlcN6P” value with glucosamine-6-phosphate [5] was 0.000105 ± 1.9e-05 s⁻¹. Also, the “self-cleavage kobs at 2500 uM GlcN6P” value in the data set with glucosamine-6-phosphate [3] was found to be 0.000436 ± 6.7e-05 s⁻¹. The “self-cleavage kobs at 10000 uM GlcN6P” value with glucosamine-6-phosphate [4] is 0.000531 ± 6e-05 s⁻¹.
For A14C G44A, the kcat with glucosamine-6-phosphate [1] came out at 0.000834 ± 0.00022 s⁻¹. Besides, the “self-cleavage kobs at 40 uM GlcN6P” value with glucosamine-6-phosphate [2] was less than 1e-05 s⁻¹. Further, in the data set with glucosamine-6-phosphate [4], the “self-cleavage kobs at 10000 uM GlcN6P” value is 4.02e-05 ± 1.1e-05 s⁻¹.
Take A33U U54C: the kcat with glucosamine-6-phosphate [1] is 0.000118 ± 8e-06 s⁻¹. Besides, in the data set with glucosamine-6-phosphate [6], the KM stood at 2880 ± 720 µM. Moreover, the “self-cleavage kobs at 160 uM GlcN6P” value with glucosamine-6-phosphate [7] is less than 1e-05 s⁻¹. Besides, in the data set with glucosamine-6-phosphate [3], the “self-cleavage kobs at 2500 uM GlcN6P” value was 5.23e-05 ± 2e-05 s⁻¹. Moreover, in the data set with glucosamine-6-phosphate [4], the “self-cleavage kobs at 10000 uM GlcN6P” value turned out to be 9.17e-05 ± 1.1e-05 s⁻¹.
Regarding A39C U45G, in the data set with glucosamine-6-phosphate [1], the kcat is 0.00234 ± 0.00083 s⁻¹. In addition, the KM with glucosamine-6-phosphate [6] is 2340 ± 1100 µM. In addition, the “self-cleavage kobs at 40 uM GlcN6P” value with glucosamine-6-phosphate [2] was determined as 6.34e-05 ± 1.1e-05 s⁻¹. Moreover, the “self-cleavage kobs at 160 uM GlcN6P” value with glucosamine-6-phosphate [7] is 0.000127 ± 1.4e-05 s⁻¹. In addition, the “self-cleavage kobs at 640 uM GlcN6P” value with glucosamine-6-phosphate [5] was 0.000759 ± 0.0001 s⁻¹. Besides, the “self-cleavage kobs at 2500 uM GlcN6P” value in the data set with glucosamine-6-phosphate [3] came out at 0.00114 ± 0.00018 s⁻¹. In the data set with glucosamine-6-phosphate [4], the “self-cleavage kobs at 10000 uM GlcN6P” value worked out at 0.00189 ± 0.00029 s⁻¹.
For A53C C67A, in the data set with glucosamine-6-phosphate [1], the kcat came out at 0.000935 ± 0.0003 s⁻¹. Moreover, the KM in the data set with glucosamine-6-phosphate [6] turned out to be 1500 ± 750 µM. Moreover, the “self-cleavage kobs at 160 uM GlcN6P” value with glucosamine-6-phosphate [7] was found to be 7.58e-05 ± 1.6e-05 s⁻¹. The “self-cleavage kobs at 640 uM GlcN6P” value with glucosamine-6-phosphate [5] was 0.000414 ± 6.3e-05 s⁻¹. For the same variant, the “self-cleavage kobs at 2500 uM GlcN6P” value in the data set with glucosamine-6-phosphate [3] was determined as 0.000435 ± 0.00011 s⁻¹. The “self-cleavage kobs at 10000 uM GlcN6P” value with glucosamine-6-phosphate [4] turned out to be 0.000889 ± 0.00017 s⁻¹.
As for U54A C68A, in the data set with glucosamine-6-phosphate [1], the kcat was 5.71e-05 ± 2e-05 s⁻¹. In addition, the “self-cleavage kobs at 160 uM GlcN6P” value in the data set with glucosamine-6-phosphate [7] is 4.94e-05 ± 1.5e-05 s⁻¹. In addition, the “self-cleavage kobs at 640 uM GlcN6P” value with glucosamine-6-phosphate [5] came to 7.98e-05 ± 1.5e-05 s⁻¹. Besides, the “self-cleavage kobs at 2500 uM GlcN6P” value in the data set with glucosamine-6-phosphate [3] stood at 7.88e-05 ± 1.1e-05 s⁻¹.
In the case of G41C U55C, the turnover number (kcat) with glucosamine-6-phosphate [1] was 0.000176 ± 4.4e-05 s⁻¹. Moreover, in the data set with glucosamine-6-phosphate [3], the “self-cleavage kobs at 2500 uM GlcN6P” value was 0.00012 ± 3.6e-05 s⁻¹. Moreover, the “self-cleavage kobs at 10000 uM GlcN6P” value with glucosamine-6-phosphate [4] was determined as 0.000129 ± 3.9e-05 s⁻¹.
C10U C34A C50A G51U C70A: the kcat with glucosamine-6-phosphate [1] was determined as 5.4e-05 ± 1.3e-05 s⁻¹. For the same variant, the “self-cleavage kobs at 10000 uM GlcN6P” value with glucosamine-6-phosphate [4] worked out at 7.55e-05 ± 2.9e-05 s⁻¹.
Consider U57A U65G, for which the kcat in the data set with glucosamine-6-phosphate [1] turned out to be 4.49e-05 ± 7.1e-06 s⁻¹. For the same variant, in the data set with glucosamine-6-phosphate [2], the “self-cleavage kobs at 40 uM GlcN6P” value was less than 1e-05 s⁻¹. Also, in the data set with glucosamine-6-phosphate [3], the “self-cleavage kobs at 2500 uM GlcN6P” value was determined as 4.6e-05 ± 1.3e-05 s⁻¹. The “self-cleavage kobs at 10000 uM GlcN6P” value in the data set with glucosamine-6-phosphate [4] worked out at 3.88e-05 ± 1.2e-05 s⁻¹.
